These results are taken from patent publication US20030165489A1.

In data set [1] the target is T1, SP (substance P) (UniProt P20366).
T1 sequence: RPKPQQFFGLM

Data set [2] deals with SP (substance P) (UniProt P20366). The experiment in a line: cell-based or functional assay.

Regarding “Recombinant dipeptidyl peptidase IV (DPPIV), soluble form secreted from Aspergilus Fumigatus”, in the data set with SP (substance P) [1], the “degradation of SP identified by mass-spectrometry” value was “SP (1.8 µg) co-incubated with 0.016 µg of DPPIV for ten minutes at 37 °C is degraded to SP5-11”. In the data set with SP (substance P) [2], “Recombinant dipeptidyl peptidase IV (DPPIV), soluble form secreted from Aspergilus Fumigatus (enzyme)” gave a diminution of SP-evoked vasodilatory response (100 pg SP, pig in vivo, after 50 µg DPPIV) of 66% and a diminution of SP-evoked vasodilatory response (1 ng SP, pig in vivo, after 50 µg DPPIV) of 71%.
